Data reported in patent publication US20190376053A1 (BOARD OF TRUSTEES OF THE UNIVERSITY OF ARKANSAS, published 2019).

How the values were obtained:
[1] = biological target: T1, collagen fibril (porcine skin fiber, Nippi, Inc) (porcine); test: collagen fibril binding assay (spin column, SDS-PAGE of the unbound protein, Scatchard plot)
T1 construct: also called collagen fiber; insoluble collagen fibril

[2] = biological target: rat collagen (collagen type I) (rat, UniProt P02454 152-1207; P02466 86-1125); test: cell-based or functional assay
rat collagen (collagen type I), sequence (P02454 152-1207 limits assumed, chain 1 of 2): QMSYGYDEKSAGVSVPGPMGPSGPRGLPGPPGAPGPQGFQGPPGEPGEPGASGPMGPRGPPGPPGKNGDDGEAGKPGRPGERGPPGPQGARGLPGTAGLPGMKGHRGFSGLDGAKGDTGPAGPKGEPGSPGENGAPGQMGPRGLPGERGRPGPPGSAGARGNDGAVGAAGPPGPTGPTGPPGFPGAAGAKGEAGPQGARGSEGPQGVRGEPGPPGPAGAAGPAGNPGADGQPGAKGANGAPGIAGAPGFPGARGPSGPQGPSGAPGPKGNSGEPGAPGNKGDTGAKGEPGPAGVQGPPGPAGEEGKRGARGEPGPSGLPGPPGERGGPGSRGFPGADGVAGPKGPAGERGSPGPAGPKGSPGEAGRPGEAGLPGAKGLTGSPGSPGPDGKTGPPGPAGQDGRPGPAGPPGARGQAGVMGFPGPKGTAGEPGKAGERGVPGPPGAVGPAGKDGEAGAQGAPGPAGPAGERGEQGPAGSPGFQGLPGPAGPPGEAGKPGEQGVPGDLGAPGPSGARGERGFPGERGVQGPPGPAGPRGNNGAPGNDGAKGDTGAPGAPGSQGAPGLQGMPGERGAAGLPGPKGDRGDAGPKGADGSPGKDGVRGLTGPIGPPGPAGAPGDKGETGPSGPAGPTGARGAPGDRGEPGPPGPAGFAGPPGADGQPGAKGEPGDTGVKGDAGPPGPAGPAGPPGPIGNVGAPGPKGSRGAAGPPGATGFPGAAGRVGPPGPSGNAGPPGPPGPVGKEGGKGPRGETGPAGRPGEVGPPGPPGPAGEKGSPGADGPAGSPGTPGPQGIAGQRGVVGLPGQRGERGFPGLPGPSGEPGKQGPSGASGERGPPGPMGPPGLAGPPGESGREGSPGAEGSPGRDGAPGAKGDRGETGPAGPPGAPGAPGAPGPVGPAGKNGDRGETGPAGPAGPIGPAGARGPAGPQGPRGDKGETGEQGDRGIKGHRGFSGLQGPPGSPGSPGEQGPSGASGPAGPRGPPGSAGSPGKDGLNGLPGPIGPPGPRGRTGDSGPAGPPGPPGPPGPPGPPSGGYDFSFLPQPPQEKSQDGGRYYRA
rat collagen (collagen type I), sequence (P02466 86-1125 limits assumed, chain 2 of 2): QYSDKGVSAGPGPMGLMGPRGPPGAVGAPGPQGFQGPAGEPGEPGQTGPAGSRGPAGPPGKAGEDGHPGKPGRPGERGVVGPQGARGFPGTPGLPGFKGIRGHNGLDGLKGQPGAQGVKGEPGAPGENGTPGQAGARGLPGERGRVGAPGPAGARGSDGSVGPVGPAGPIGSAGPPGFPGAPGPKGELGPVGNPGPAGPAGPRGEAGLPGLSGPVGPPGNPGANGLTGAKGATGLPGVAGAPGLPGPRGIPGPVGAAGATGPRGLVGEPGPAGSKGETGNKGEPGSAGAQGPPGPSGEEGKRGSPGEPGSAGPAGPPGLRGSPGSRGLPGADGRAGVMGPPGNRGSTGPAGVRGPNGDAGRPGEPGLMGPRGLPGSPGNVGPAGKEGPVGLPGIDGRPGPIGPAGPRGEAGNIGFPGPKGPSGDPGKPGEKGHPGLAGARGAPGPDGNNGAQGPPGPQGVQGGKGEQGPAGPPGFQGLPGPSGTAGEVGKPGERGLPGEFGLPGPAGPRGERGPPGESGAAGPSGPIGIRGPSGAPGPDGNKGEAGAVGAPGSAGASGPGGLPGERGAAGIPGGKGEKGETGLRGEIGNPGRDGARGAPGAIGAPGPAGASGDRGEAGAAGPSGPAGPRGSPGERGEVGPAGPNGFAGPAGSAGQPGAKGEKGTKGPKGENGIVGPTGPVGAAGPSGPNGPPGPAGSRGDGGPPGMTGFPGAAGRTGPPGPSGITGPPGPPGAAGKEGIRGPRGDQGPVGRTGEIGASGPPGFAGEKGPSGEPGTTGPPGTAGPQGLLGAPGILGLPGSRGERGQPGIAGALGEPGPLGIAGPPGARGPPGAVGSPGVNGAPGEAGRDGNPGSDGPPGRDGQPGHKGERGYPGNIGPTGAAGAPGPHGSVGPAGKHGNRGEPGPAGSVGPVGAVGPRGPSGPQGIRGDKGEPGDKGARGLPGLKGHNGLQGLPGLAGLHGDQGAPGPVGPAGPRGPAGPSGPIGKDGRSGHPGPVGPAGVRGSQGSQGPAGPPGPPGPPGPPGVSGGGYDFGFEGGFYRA

Binder | Kd [1] [µM] | collagen fibril thickness against the collagen control, 5:1 ratio [2] [% less] | fibril growth, absorption, higher ratios of tandem CBD [2] | fibril growth, absorption, lower ratios of CBD [2]
collagen-binding domain s3b derived from Clostridium histolyticum class I collagenase ColG (other, domain: s3b; also called ColGS3b; CBD (s3b)) GNEKLKEKENNDSSDKATVIPNFNTTMQGSLLGDDSRDYYSFEVKEEGEVNIELDKKDEFGVTWTLHPESNINDRITYGQVDGNKVSNKVKLRPGKYYLLVYKYSGSGNYELRVNK | ~100 | – | – | –
tandem collagen-binding domain (s3a-s3b) derived from Clostridium histolyticum class I collagenase ColG (other) PITKEMEPNDDIKEANGPIVEGVTVKGDLNGSDDADTFYFDVKEDGDVTIELPYSGSSNFTWLVYKEGDDQNHIASGIDKNNSKVGTFKSTKGRHYVFIYKHDSASNISYSLNIKGLGNEKLKEKENNDSSDKATVIPNFNTTMQGSLLGDDSRDYYSFEVKEEGEVNIELDKKDEFGVTWTLHPESNINDRITYGQVDGNKVSNKVKLRPGKYYLLVYKYSGSGNYELRVNK | – | 2 | 0.005 | 0.0217
